Data as given in FireProtDB (doi:10.1074/jbc.274.2.717).
Where “and” joins values, the source holds several entries; their conditions need not be identical. Equal entries are not always repeated.

Details: Homo sapiens, pH 8.7, Thermal, DSC, reversible: yes, whole UniProt chain shown

B1: Alpha-2-macroglobulin receptor-associated protein wild type, P30533 (protein)
chain: MAPRRVRSFLRGLPALLLLLLFLGPWPAASHGGKYSREKNQPKPSPKRESGEEFRMEKLNQLWEKAQRLHLPPVRLAELHADLKIQERDELAWKKLKLDGLDEDGEKEARLIRNLNVILAKYGLDGKKDARQVTSNSLSGTQEDGLDDPRLEKLWHKAKTSGKFSGEELDKLWREFLHHKEKVHEYNVLLETLSRTEEIHENVISPSDLSDIKGSVLHSRHTELKEKLRSINQGLDRLRRVSHQGYSTEAEFEEPRVIDLWDLAQSANLTDKELEAFREELKHFEAKIEKHNHYQKQLEIAHEKLRHAESVGDGERVSRSREKHALLEGRTKELGYTVKKHLQDLSGRISRARHNEL
**Q.** What does the source list for B1?
**A.** Tm (Gly 20 mM, transition: 2): 65.8 °C; unfolding enthalpy (calorimetric) (Gly 20 mM, transition: 2): 56 kcal/mol; unfolding enthalpy (calorimetric) (Glycine 20 mM, transition: 2): 45 kcal/mol and 41 kcal/mol and 59 kcal/mol; unfolding enthalpy (calorimetric) (Glycine 20 mM, transition: 4): 42 kcal/mol and 41 kcal/mol
